EP0311107A2, “Anti-HIV active 3'-fluoro-purine-2',3'-dideoxyribosides” (priority 1987, dated 1989)

Columns and labels:
[1] = substrate: Nc1nc(N)c2ncn([C@H]3C[C@@H](O)[C@@H](CO)O3)c2n1; experiment: Substrate kinetics for deamination by adenosine deaminase; type: biochemical; settings: other: beef intestine adenosine deaminase
Text: (§1) All four ddDAPR analogues were examined for their sus­ceptibility to deamination by beef intestine adenosine de­ aminase (ADA).

[2] = substrate: Nc1nc(N)c2ncn([C@H]3C[C@H](F)[C@@H](CO)O3)c2n1; experiment: as above; type: biochemical; settings: other: beef intestine adenosine deaminase
Text: as §1

B1: beef intestine adenosine deaminase (ADA) (Bos taurus) (protein)
chain: MAQTPAFNKPKVELHVHLDGAIKPETILYYGRKRGIALPADTPEELQNIIGMDKPLSLPEFLAKFDYYMPAIAGCREAVKRIAYEFVEMKAKDGVVYVEVRYSPHLLANSKVEPIPWNQAEGDLTPDEVVSLVNQGLQEGERDFGVKVRSILCCMRHQPSWSSEVVELCKKYREQTVVAIDLAGDETIEGSSLFPGHVKAYAEAVKSGVHRTVHAGEVGSANVVKEAVDTLKTERLGHGYHTLEDATLYNRLRQENMHFEVCPWSSYLTGAWKPDTEHPVVRFKNDQVNYSLNTDDPLIFKSTLDTDYQMTKNEMGFTEEEFKRLNINAAKSSFLPEDEKKELLDLLYKAYGMPSPASAEQCL
notes: Kinetic properties of beef intestine adenosine deaminase for 2,6-diaminopurine 2′,3′-dideoxynucleoside analogues; purchased Boehringer Mannheim, Mannheim, West Germany; host or cells: beef intestine (tissue-derived enzyme)
[1]
  Km: 74 µM
[2]
  Km: 148 µM
  Vmax: 31 µmole/mg protein/min
